Among the data in PMC3759463 (PLoS ONE, 2013) are Kd values, retold here.

Read-outs that look alike come from different tables or passages of the source. Peptide text beside a SMILES is read from it.

In one assay the target is T1, HLA-DRB1*15∶01 (Homo sapiens, UniProt P01903+P01911).
T1 construct: expression of transmembrane-truncated versions of isolated α and in vivo biotinylated β chain molecules in E. coli; made in house
The assay is described as follows: biochemical. The assay is classed as binding. The conditions noted are these: C-terminally H6-tagged peptide, read-out: KD (nM) HLA-DRB1*15∶01 + tag.

A further assay deals with T2, HLA-DRB5*01∶01 (Homo sapiens, UniProt P01903+Q30154).
T2 construct: expression of transmembrane-truncated versions of isolated α and in vivo biotinylated β chain molecules in E. coli; made in house
Kind of assay: biochemical. Type of assay: binding.

In another assay the target is T3, HLA-DRB1*01∶01 (Homo sapiens, UniProt P01903+P01911, A100R/D57E/F55L/F60I/F76Y/I96L/L162R/M171V/P40L/Q125E/R42F/V115G/Y59C).
T3 construct: expression of transmembrane-truncated versions of isolated α and in vivo biotinylated β chain molecules in E. coli; made in house
The assay is described as follows: biochemical. The assay is classed as binding. The conditions noted are these: C-terminally H6-tagged peptide, read-out: KD (nM) HLA-DRB1*01∶01 + tag.

Assay [1] concerns the target HLA-DRB1*15∶01 (recombinant HLA-DR alpha chain with FOS zipper paired with HLA-DRB1*15∶01 beta chain with JUN zipper and BSP). The assay is described as follows: AlphaScreen or HTRF. A general note: In Alpha technology, singlet oxygen from a donor bead excites a nearby acceptor bead.
The target of assay [2] is HLA-DRB1*01∶01 (recombinant HLA-DR alpha chain with FOS zipper paired with HLA-DRB1*01∶01 beta chain with JUN zipper and BSP). Kind of assay: AlphaScreen or HTRF.
Assay [3] concerns the target HLA-DRB5*01∶01 (recombinant HLA-DR alpha chain with FOS zipper paired with HLA-DRB5*01∶01 beta chain with JUN zipper and BSP). Kind of assay: AlphaScreen or HTRF.
Where [4] appears, read: C-terminally H6-tagged peptide, […], read-out: KD (nM) HLA-DRB5*01∶01 + tag.

As to `CC(C)C[C@H](NC(=O)[C@H](CCCCN)NC(=O)[C@H](CC(C)C)NC(=O)[C@@H](NC(=O)[C@H](CC(N)=O)NC(=O)[C@H](CCC(N)=O)NC(=O)[C@H](CCCCN)NC(=O)[C@@H](NC(=O)[C@H](Cc1ccc(O)cc1)NC(=O)[C@H](CCCCN)NC(=O)[C@@H](N)Cc1ccc(O)cc1)C(C)C)[C@@H](C)O)C(=O)N[C@@H](C)C(=O)N[C@H](C(=O)N[C@@H](Cc1c[nH]cn1)C(=O)N[C@@H](Cc1c[nH]cn1)C(=O)N[C@@H](Cc1c[nH]cn1)C(=O)N[C@@H](Cc1c[nH]cn1)C(=O)N[C@@H](Cc1c[nH]cn1)C(=O)N[C@@H](Cc1c[nH]cn1)C(=O)O)[C@@H](C)O` [Influenza A HA306–318 + tag] (H-YKYVKQNTLKLATHHHHHH-OH), the Kd came to 345 nM on HLA-DRB1*15∶01 and 17 nM on HLA-DRB5*01∶01 (setting [4]).
In the case of `CC(C)C[C@H](NC(=O)[C@@H](NC(=O)[C@H](Cc1ccccc1)NC(=O)[C@@H](NC(=O)[C@H](Cc1ccccc1)NC(=O)CNC(=O)[C@@H](N)CC(C)C)C(C)C)[C@@H](C)O)C(=O)N[C@H](C(=O)N[C@H](C(=O)N1CCC[C@H]1C(=O)N[C@@H](CO)C(=O)N[C@@H](CCC(=O)O)C(=O)N[C@@H](CCCNC(=N)N)C(=O)NCC(=O)N[C@@H](Cc1c[nH]cn1)C(=O)N[C@@H](Cc1c[nH]cn1)C(=O)N[C@@H](Cc1c[nH]cn1)C(=O)N[C@@H](Cc1c[nH]cn1)C(=O)N[C@@H](Cc1c[nH]cn1)C(=O)N[C@@H](Cc1c[nH]cn1)C(=O)O)C(C)C)[C@@H](C)O` [Influenza A MP60–72 + tag] (H-LGFVFTLTVPSERGHHHHHH-OH), the figures for the Kd at HLA-DRB1*01∶01, at HLA-DRB1*15∶01 and at HLA-DRB5*01∶01 (setting [4]) were 40 nM, 282 nM and 13 nM, respectively.
`CC(C)C[C@H](NC(=O)[C@@H](NC(=O)[C@H](Cc1ccccc1)NC(=O)[C@@H](NC(=O)[C@H](Cc1ccccc1)NC(=O)CNC(=O)[C@@H](N)CC(C)C)C(C)C)[C@@H](C)O)C(=O)N[C@H](C(=O)N[C@H](C(=O)N1CCC[C@H]1C(=O)N[C@@H](CO)C(=O)N[C@@H](CCC(=O)O)C(=O)N[C@@H](CCCNC(=N)N)C(=O)NCC(=O)O)C(C)C)[C@@H](C)O` [Influenza A MP60–72, reference compound]: the Kd at HLA-DRB5*01∶01 (read-out: KD (nM) HLA-DRB5*01∶01 − tag) is 7 nM.
“Hepatitis C (Hep C) peptide NS3_(218–235)”: the Kd in assay [1] was determined as 2 nM; in assay [2], 3 nM.
For the molecule “Hepatitis C peptide Hep C-NS3_(218–235(H6))”, the Kd in assay [1] amounted to 2 nM; in assay [2] it was 5 nM; in assay [3] it was 37 nM.
The like results for Influenza A peptide HA_(307–318(H6)) were, in that order, 345 nM, 19 nM and 17 nM.
Influenza A peptide HA_(307–318): the values for the Kd in assay [1], in assay [2] and in assay [3] were 25 nM, 9 nM and 4 nM, respectively.
Taken in the same sequence, the figures for Influenza A peptide MP_(60–73(H6)) were 282 nM, 40 nM and 13 nM.
The like results for Influenza A peptide MP_(60–73) were, in that order, 270 nM, 17 nM and 7 nM.
As for “cytomegalovirus (CMV) peptide IE1_(211–225(H6))”, the Kd in assay [1] turned out to be 127 nM; in assay [2], 42 nM; in assay [3], 8 nM.
As for “cytomegalovirus (CMV) peptide IE1_(211–225)”, the Kd in assay [3] came out at 8 nM.

The Kd is the concentration at which binding is half-saturated.
